Experiments:
[1] = target: T1, human 5T4 on cells (human, UniProt Q13641 32-420); test: flow cytometry, JEG cells, streptavidin-PE, normalized MFI of 2 pooled experiments
T1 construct: Human 5T4 on transfected cells (CHO-K1, CT26, B16) or endogenous on human tumour lines; the cell line is named under assay; also called trophoblast glycoprotein; TPBG
T1 sequence: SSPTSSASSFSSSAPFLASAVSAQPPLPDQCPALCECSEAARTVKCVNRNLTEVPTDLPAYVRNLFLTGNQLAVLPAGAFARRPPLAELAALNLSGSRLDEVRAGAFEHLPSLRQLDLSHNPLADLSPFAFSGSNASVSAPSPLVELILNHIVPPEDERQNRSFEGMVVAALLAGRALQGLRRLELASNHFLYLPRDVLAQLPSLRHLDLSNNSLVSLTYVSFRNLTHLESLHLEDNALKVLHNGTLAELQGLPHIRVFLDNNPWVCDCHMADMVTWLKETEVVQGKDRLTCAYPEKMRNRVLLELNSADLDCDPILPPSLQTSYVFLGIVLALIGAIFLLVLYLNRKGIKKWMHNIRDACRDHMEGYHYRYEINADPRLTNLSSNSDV
Method: (§1) FACS staining and analysis of 5T4-expressing cell lines: Prior to the FACS staining, all cell lines were characterized for their 5T4 expression levels using a receptor density kit (Quantum Simply Cellular, anti-human IgG, Bangs Laboratories, Inc). Adherent cell lines were cultured according to their supplier's instructions and were harvested from their cell culture flasks using Trypsin/EDTA, counted in R10 medium in a Burker chamber, and diluted in FACS buffer (PBS+0.5% BSA, 0.05% NaN₃) to a concentration of 4×10⁶ cells/mL. 50 μL (0.20×10⁶) of cell solution was added to a 96-well FACS staining plate (Falcon #351190). Cells were incubated for 20 min in 4° C. with 50 μL of the biotinylated ALG.APV-210 (2× final concentration). The antibodies were added in a serial dilution starting at 20 μg/mL titrating down in a 12 step 1/2 dilution down to 0.010 μg/mL. […] Cells were analysed for ALG.APV-210 binding using flow cytometry (FACSVerse) by gating on single cells. MFI values (secondary antibody only subtracted) from 1 out of 2 independent experiments, as well as normalized data and EC₅₀-values of pooled data from 2 experiments were determined and plotted using GraphPad Prism 7, non-linear regression log (agonist) vs. normalized response-variable slope.

[2] = target: T1, human 5T4 on cells; test: flow cytometry, BxPC-3 cells, streptavidin-PE, normalized MFI of 2 pooled experiments
Method: as §1

[3] = target: T1, human 5T4 on cells; test: flow cytometry, HCT-116 cells, streptavidin-PE, normalized MFI of 2 pooled experiments
Method: as §1

[4] = target: T1, human 5T4 on cells; test: flow cytometry, B16-hu5T4 cells, streptavidin-PE, normalized MFI of 2 pooled experiments
Method: as §1

[5] = target: T1, human 5T4 on cells; test: flow cytometry, CT26-hu5T4^high cells, streptavidin-PE, normalized MFI of 2 pooled experiments
Method: Biotinylation: In order to detect ALG.APV-210 binding to 5T4-expressing cell lines, ALG.APV-210 was first biotinylated. The quality of the biotinylated protein and the impact on binding to its targets was assessed using ELISA.
as §1, with “concentration).” for “concentration). The antibodies were added in a serial dilution starting at 20 μg/mL titrating down in a 12 step 1/2 dilution down to 0.010 μg/mL.”

[6] = target: T2, human CD137 on cells (human, UniProt Q07011 24-255); test: flow cytometry, human CD8 T cells gated from CD3-stimulated PBMC, normalized MFI, 2 pooled experiments
T2 construct: Human CD137 on CHO-K1 transfectants, Jurkat/CD137 reporter cells or CD3-stimulated primary human CD8 T cells; cells named under assay; also called 4-1BB; TNFRSF9
Method: FACS staining and analysis of CD8 T cells: Following 48 h of incubation with or without CD3, human and cynomolgus PBMC were harvested, pooled, recounted and diluted in FACS buffer (PBS+0.5% BSA, 0.05% NaN₃) to a concentration of 5×10⁶ cells/mL. 50 μL (0.25×10⁶ cells) of cell solution was added to a 96-well FACS staining plate (Falcon #351190). Following 10 min of Fc-blocking in RT using Beriglobin (hIgG, 200 μg/mL), cells were washed in FACS buffer and then incubated for 1 h in 4° C. with 100 μL of the biotinylated ALG.APV-210 or negative control. The antibodies were added in a serial dilution starting either at 5 μg/mL titrating down in a 12 step 1/3 dilution down to 0.0003 μg/mL (exp 1) or 1 μg/mL titrating down in a 12 step 1/2 dilution down to 0.0005 μg/mL (exp 2). […] Cells were analysed for ALG.APV-210 binding using flow cytometry by gating on viable, single cells expressing CD3 and CD8. MFI values (FMO subtracted) from 2 independent experiments as well as normalized pooled data from 2 experiments and EC₅₀-values were determined and plotted using GraphPad Prism 7, non-linear regression log (agonist) vs. normalized response-variable slope, n=6 donors/group.

[7] = target: T3, cynomolgus CD137 on cells (cynomolgus macaque, UniProt A9YYE7 24-254); test: flow cytometry, cynomolgus CD8 T cells gated from CD3-stimulated PBMC, normalized MFI, 2 pooled experiments
T3 construct: whole, on cells; also called CHO-K1/cynomolgus CD137; cynomolgus monkey CD137
Method: Isolation and stimulation of cynomolgus PBMC: Cynomolgus PBMC were isolated from 20 mL of cynomolgus monkey blood from 3 different donors, obtained from Silabe, France by density gradient centrifugation using Lympholyte-mammal (Cedarlane labs) according to manufacturer's instructions. Non-tissue treated 96 well plates were pre-coated overnight at 4° C. with 3 μg/mL α-monkey CD3, clone FN-18 (Invitrogen #APS0301). The cynomolgus PBMC were then stimulated identically as the human PBMC described above
FACS staining and analysis of CD8 T cells: Following 48 h of incubation with or without CD3, human and cynomolgus PBMC were harvested, pooled, recounted and diluted in FACS buffer (PBS+0.5% BSA, 0.05% NaN₃) to a concentration of 5×10⁶ cells/mL. 50 μL (0.25×10⁶ cells) of cell solution was added to a 96-well FACS staining plate (Falcon #351190). […] Cells were analysed for ALG.APV-210 binding using flow cytometry by gating on viable, single cells expressing CD3 and CD8. MFI values (FMO subtracted) from 2 independent experiments as well as normalized pooled data from 2 experiments and EC₅₀-values were determined and plotted using GraphPad Prism 7, non-linear regression log (agonist) vs. normalized response-variable slope, n=6 donors/group.

T2 sequence (Q07011 24-255 limits assumed): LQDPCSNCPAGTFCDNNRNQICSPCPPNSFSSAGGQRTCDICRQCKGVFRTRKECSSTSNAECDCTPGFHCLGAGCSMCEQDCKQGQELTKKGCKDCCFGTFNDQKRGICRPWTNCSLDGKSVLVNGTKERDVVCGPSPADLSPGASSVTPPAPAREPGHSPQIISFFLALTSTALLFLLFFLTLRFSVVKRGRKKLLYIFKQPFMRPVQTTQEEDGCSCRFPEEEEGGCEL
T3 sequence (A9YYE7 entry or part of it): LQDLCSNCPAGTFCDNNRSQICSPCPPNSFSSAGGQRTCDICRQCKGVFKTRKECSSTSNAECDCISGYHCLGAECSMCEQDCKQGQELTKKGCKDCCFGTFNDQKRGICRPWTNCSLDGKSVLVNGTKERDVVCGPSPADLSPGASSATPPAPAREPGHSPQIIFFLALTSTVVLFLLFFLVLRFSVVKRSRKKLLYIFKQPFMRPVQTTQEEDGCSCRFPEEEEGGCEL

B1: biotinylated ALG.APV-210 (bispecific antibody)
chain: EVQLLESGGGLVQPGGSLRLSCAASGFTFSHGSMYWVRQAPGKGLEWVSSISSGSGSTYYADSVKGRFTISHDNSKNTLYLQMNSLRAEDTAVYYCARSSYYGSYYSIDYWGQGTLVTVSSGGGGSGGGGSGGGGSGGGGSDIQMTQSPSSLSASVGDRVTITCRASQSISSYLNWYQQKPGKAPKLLIYAASSLQSGVPSRFSGSGSGTDFTLTISSLQPEDFATYYCQQYYDNLPTFGQGTKLEIKEPKSSDKTHTCPPCPAPEAAGAPSVFLFPPKPKDTLMISRTPEVTCVVVDVSHEDPEVKFNWYVDGVEVHNAKTKPREEQYNSTYRVVSVLTVLHQDWLNGKEYKCAVSNKALPAPIEKTISKAKGQPREPQVYTLPPSRDELTKNQVSLTCLVKGFYPSDIAVEWESNGQPENNYKTTPPVLDSDGSFFLYSKLTVDKSRWQQGNVFSCSVMHEALHNHYTQKSLSLSPGSGGGGSGGGGSGGGGSPSEVQLLESGGGLVQPGGSLRLSCAASGFTFSSYAMSWVRQAPGKCLEWVSAISGSGGSTYYADSVKGRFTISRDNSKNTLYLQMNSLRAEDTAVYYCARYYGGYYSAWMDYWGQGTLVTVSSGGGGSGGGGSGGGGSGGGGSDIQMTQSPSSLSASVGDRVTITCRASQSISSFLNWYQQKPGKAPKLLIYAASSLQSGVPSRFSGSGSGTDFTLTISSLQPEDSATYYCQQTYGYLHTFGCGTKLEIKR
modifications: biotinylated (sites not given)
Binder B1 has an EC50 [1] of 8 nM, an EC50 [2] of 20 nM and an EC50 [3] of 16 nM. For the same binder, the EC50 [4] was 14 nM, the EC50 [5] was 20 nM and the EC50 [6] was 0.235 nM. For the same binder, the EC50 [7] was 0.236 nM.
